Key:
[1] = molecular target: CFP (UniProt P42212); assay: cited; conditions: PBS, 5 mM MgCl2, pH 7.4, room temperature, 5 min; 50 nM GFP, excitation 480 nm; cited from earlier work
[2] = molecular target: EGFP (UniProt P42212); assay: cited; conditions: PBS, 5 mM MgCl2, pH 7.4, room temperature, 5 min; 50 nM GFP, excitation 480 nm; cited from earlier work
[3] = molecular target: YFP (UniProt P42212); assay: cited; conditions: PBS, 5 mM MgCl2, pH 7.4, room temperature, 5 min; 50 nM GFP, excitation 480 nm; cited from earlier work
[4] = molecular target: EGFP (UniProt P42212); assay: GFP fluorescence quenching titration; conditions: PBS, 5 mM MgCl2, pH 7.4, room temperature, 5 min; 50 nM GFP, excitation 480 nm

GGGAGCUUCUGGACUGCGAUGGGAGCACGAAACGUCGUGGCGCAAUUGGGUGGGGAAAGUCCUUAAAAGAGGGCCACCACAGAAGC [AP3 (GFP aptamer)]
Kd [1]: 10 nM
Kd [2]: 4 nM
Kd [3]: 10 nM
Kd [4]: 4 nM

— paper doi:10.1101/2020.02.27.968578
